Target: recombinant mouse α1C/β2A tubulin heterodimer (mouse, UniProt P68373;Q7TMM9)
Test: single-molecule TIRF microscopy

Chain of recombinant mouse α1C/β2A tubulin heterodimer (P68373 whole entry, one chain of several): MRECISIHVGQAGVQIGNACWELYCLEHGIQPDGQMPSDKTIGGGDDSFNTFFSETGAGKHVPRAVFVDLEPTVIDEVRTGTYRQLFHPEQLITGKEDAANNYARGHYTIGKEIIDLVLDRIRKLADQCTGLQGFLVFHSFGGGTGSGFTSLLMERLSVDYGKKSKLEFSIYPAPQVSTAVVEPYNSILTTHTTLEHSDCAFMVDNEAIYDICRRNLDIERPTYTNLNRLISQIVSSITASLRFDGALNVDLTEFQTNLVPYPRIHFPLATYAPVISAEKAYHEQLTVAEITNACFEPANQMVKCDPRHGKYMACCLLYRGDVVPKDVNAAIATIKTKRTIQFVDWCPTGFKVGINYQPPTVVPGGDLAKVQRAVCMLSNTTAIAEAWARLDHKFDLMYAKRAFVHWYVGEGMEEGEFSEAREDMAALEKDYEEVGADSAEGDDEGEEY

B1: EB1-GFP (full-length human EB1 with a GFP tag) (natural protein)
chain: MAVNVYSTSVTSDNLSRHDMLAWINESLQLNLTKIEQLCSGAAYCQFMDMLFPGSIALKKVKFQAKLEHEYIQNFKILQAGFKRMGVDKIIPVDKLVKGKFQDNFEFVQWFKKFFDANYDGKDYDPVAARQGQETAVAPSLVAPALNKPKKPLTSSSAAPQRPISTQRTAAAPKAGPGVVRKNPGVGNGDDEAAELMQQVNVLKLTVEDLEKERDFYFGKLRNIELICQENEGENDPVLQRIVDILYATDEGFVIPDEGGPQEEQEEY
binding result: binds

From paper PMC8800519 (Journal of Molecular Cell Biology, 2021)
